Test results taken from patent US20120207759A1 (WASHINGTON UNIVERSITY, published 2012).
Each block holds one binder with its values, some of them ahead of it.

Assays:
Grb2 = Grb2 (UniProt P62993 1-217); assay: co-immunoprecipitation
SHIP = target: T1, SHIP (UniProt Q92835 1-1189, limits assumed); assay: co-immunoprecipitation
T1 sequence (looked up): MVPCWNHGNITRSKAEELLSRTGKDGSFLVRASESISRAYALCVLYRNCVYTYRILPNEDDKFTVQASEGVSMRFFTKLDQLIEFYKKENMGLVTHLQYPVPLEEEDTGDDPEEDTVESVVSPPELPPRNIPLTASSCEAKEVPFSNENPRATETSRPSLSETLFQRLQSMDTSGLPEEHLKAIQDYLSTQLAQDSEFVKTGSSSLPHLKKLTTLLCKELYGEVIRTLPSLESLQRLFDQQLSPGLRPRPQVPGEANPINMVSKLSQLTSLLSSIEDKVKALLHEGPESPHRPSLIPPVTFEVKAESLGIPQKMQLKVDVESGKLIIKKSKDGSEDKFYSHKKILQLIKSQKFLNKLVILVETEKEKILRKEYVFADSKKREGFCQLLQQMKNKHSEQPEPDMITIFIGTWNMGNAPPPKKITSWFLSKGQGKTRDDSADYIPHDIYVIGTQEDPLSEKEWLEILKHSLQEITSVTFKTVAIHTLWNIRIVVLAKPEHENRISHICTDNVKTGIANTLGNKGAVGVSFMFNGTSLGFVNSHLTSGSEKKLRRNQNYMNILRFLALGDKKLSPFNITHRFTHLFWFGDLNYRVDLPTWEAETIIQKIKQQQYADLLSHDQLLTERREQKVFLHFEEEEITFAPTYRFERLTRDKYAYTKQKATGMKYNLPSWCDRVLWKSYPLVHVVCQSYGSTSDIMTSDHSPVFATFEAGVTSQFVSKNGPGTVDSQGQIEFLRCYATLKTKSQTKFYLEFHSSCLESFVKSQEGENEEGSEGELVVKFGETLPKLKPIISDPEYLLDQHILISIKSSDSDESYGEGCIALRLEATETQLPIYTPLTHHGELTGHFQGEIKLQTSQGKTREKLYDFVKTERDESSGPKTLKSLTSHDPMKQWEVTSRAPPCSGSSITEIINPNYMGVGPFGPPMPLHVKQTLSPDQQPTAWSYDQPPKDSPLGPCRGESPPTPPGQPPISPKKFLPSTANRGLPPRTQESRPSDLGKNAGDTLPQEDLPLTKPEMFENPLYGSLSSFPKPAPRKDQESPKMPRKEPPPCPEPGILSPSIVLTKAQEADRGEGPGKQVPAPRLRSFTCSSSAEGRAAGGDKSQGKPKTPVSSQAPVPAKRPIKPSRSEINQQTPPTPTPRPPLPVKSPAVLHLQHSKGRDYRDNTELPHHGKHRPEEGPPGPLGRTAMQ

SHP-1 = SHP-1 (UniProt P29350 1-595); assay: co-immunoprecipitation
SHP-1, sequence (P29350 whole entry): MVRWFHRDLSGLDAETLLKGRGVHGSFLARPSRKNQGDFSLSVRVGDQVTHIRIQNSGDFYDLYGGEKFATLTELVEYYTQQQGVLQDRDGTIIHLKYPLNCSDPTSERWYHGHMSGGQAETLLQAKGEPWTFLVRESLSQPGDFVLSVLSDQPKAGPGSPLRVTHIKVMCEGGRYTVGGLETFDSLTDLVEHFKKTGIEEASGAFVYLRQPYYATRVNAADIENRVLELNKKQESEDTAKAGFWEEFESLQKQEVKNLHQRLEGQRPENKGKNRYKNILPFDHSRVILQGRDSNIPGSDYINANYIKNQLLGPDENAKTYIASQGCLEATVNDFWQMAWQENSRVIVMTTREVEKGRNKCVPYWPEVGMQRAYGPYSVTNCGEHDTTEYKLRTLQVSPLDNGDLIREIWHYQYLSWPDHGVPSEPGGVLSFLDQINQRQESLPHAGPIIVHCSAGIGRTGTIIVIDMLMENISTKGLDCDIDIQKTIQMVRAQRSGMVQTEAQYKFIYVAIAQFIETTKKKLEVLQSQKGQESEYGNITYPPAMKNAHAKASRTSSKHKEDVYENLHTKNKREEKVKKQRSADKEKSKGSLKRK

[1] = target: T2, human HVEM expressed on transduced BJAB cells (full length) (human, UniProt Q92956 39-283); assay: flow cytometry on transduced BJAB cells
T2 construct: also called hHVEM; hHVEM-IRES-GFP
T2 sequence: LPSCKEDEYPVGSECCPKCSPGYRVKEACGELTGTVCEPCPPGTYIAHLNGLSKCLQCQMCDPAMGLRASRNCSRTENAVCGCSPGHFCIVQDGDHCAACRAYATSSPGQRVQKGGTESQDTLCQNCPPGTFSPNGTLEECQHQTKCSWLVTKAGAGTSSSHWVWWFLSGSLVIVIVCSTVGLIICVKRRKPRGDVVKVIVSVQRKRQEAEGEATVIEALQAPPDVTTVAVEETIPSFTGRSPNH
From the text: (§1) FIG. 36 HVEM is a ligand for BTLA. (A) NIH 3T3 cells and BJAB cells were transduced with splenocyte cDNA libraries and were directly stained with anti-Thy1.1-FITC and the C57BL/6 BTLA tetramer-phycoerythrin (Before sorting). These cells were sorted for the highest 0.5% population of BTLA tetramer staining with BTLA-phycoerythrin tetramer and Thy1.1-FITC and were subjected to an additional three rounds of similar sequential purification. After the fourth round of sorting, cell populations were expanded and cells were stained (After sorting). Numbers in each quadrant indicate the percentage of live cells in the indicated gate. (B) BJAB cells were transduced with the retroviruses mHVEM-IRES-GFP (mHVEM; mouse), hHVEM-IRES-GFP (hHVEM; human), 4-1 BB-IRES-GFP (4-1 BB; mouse) and LTβR-1RES-GFP (LTβR; mouse) and were stained with C57BL/6 BTLA tetramer-phycoerythrin or BALB/c BTLA tetramer-phycoerythrin. Numbers in dot plots indicate the percentage of BTLA tetramer staining in the GFP-positive population. (C, D) HVEM activates BTLA phosphorylation and SHP-2 association. EL-4 cells (EL4), BJAB cells expressing GFP (BJAB-GFP) or BJAB cells expressing mouse HVEM (BJAB-mHVEM) were added (+) or not added (−) for 4 min at 37° C. at a density of 25×10⁶ cells/ml. Cells were left untreated (−) or were treated (+) with pervanadate (VO₄) for 4 min. Total cell lysates were prepared and were immunoprecipitated with 6A6 (anti-mouse BTLA), and immunoblots were probed for SHP-2 (C) or for phosphotyrosine (D) in immunoprecipitates (IP) or in lysates without immunoprecipitation. Immunoblots using the isotype control for immunoprecipitation were negative for SHP-2 association (data not shown). Data in C and d are representative of four independent experiments. (E) BJAB cells were transduced with retrovirus mHVEM-ires-GFP or hHVEM-ires-GFP and were stained with human IgG1 isotype control (hIgG1), mB7x-Fc, mBTLA-Fc or hBTLA-Fc followed by anti-human IgG-phycoerythrin. Numbers in dot plots show the percentage of fusion protein staining in the GFP-positive population.

[2] = target: T3, mouse 4-1BB expressed on transduced BJAB cells (mouse, UniProt P20334 24-256); assay: flow cytometry on transduced BJAB cells
T3 construct: whole, on cells; also called m4-1BB; 4-1 BB-IRES-GFP
T3 sequence (looked up): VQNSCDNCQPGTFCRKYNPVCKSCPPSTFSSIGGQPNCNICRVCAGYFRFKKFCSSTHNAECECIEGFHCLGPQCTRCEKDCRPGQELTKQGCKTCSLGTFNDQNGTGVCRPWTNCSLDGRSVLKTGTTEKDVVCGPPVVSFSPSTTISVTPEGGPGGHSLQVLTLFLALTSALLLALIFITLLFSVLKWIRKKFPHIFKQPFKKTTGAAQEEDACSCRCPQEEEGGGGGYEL
From the text: as §1

[3] = target: T4, mouse LTβR expressed on transduced BJAB cells (mouse, UniProt P50284 31-415); assay: flow cytometry on transduced BJAB cells
T4 construct: whole, on cells; also called LTI3R; mLT R
T4 sequence (P50284 31-415): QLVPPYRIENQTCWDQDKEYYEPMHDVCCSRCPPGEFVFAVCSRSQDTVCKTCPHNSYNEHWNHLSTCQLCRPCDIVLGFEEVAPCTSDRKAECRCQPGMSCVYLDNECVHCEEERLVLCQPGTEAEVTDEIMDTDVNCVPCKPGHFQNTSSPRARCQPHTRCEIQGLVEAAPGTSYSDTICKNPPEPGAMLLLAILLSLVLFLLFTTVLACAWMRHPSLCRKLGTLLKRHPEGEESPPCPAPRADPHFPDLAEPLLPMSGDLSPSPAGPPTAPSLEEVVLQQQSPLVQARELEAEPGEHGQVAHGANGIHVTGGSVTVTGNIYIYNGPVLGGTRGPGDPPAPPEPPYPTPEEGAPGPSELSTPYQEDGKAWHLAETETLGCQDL
From the text: as §1

[4] = target: T5, C57BL/6 allele of mouse BTLA expressed on transfected cells as a GFP fusion protein (mouse, UniProt Q7TSA3 30-306); assay: flow cytometry on NIH 3T3 transfectants
T5 construct: also called BJAB.B6 BTLA-GFP; C57BL/6 BTLA; not shown: GFP without its start codon
T5 sequence: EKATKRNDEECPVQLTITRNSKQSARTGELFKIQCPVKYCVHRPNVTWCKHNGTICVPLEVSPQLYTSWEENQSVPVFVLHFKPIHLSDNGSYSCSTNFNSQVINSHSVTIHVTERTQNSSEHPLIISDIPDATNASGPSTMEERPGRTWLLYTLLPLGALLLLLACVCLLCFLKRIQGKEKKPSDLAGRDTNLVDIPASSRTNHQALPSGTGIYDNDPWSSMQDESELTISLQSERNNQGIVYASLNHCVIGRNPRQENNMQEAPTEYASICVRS
From the text: (§2) To test for direct interactions between BTLA and B7x, we made NI H 3T3 cell lines stably expressing the extracellular domains of B7x, BTLA, and programmed death 1 (PD-1) and its ligand (PD-L1), and stained the cells with PD-1 and BTLA tetramers and with PD-L1 and B7x Fc fusion proteins.

[5] = target: T6, PD-L1 expressed on NIH 3T3 cells (UniProt Q9EP73 19-265, limits assumed); assay: flow cytometry on NIH 3T3 transfectants
T6 construct: domain: extracellular domains; also called PD-L1-GFP
T6 sequence (Q9EP73 19-265 limits assumed): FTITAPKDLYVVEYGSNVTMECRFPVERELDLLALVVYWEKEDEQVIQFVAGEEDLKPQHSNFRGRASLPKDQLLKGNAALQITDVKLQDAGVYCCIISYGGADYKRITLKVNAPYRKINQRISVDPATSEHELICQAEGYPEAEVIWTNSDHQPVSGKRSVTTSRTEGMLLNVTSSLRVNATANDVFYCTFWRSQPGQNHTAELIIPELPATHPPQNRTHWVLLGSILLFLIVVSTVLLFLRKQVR
From the text: as §2

[6] = target: T7, B7x extracellular domain expressed on NIH 3T3 cells (mouse, UniProt Q7TSP5 25-257); assay: flow cytometry on NIH 3T3 transfectants
T7 construct: also called B7x-B7h-GFP; not shown: B7h transmembrane and cytoplasmic domains fused to GFP
T7 sequence: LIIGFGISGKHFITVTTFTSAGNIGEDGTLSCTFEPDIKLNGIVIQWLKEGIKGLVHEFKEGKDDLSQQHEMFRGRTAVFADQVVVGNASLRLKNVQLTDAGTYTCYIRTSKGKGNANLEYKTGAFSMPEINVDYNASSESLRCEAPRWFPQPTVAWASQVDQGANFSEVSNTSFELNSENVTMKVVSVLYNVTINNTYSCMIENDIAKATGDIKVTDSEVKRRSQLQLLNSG
From the text: as §2

binding result [1]: no binding
binding result [2]: no binding
binding result [3]: no binding
B2: BALB/c BTLA tetramer-phycoerythrin (other)
chain: DEECEVQLNIKRNSKHSAWTGELFKIECPVKYCVHRPNVTWCKHNGTIWVPLEVGPQLYTSWEENRSVPVFVLHFKPIHLSDNGSYSCSTWFWSQVINSHSVTIHVR
modifications: biotinylated in vitro with BirA ligase; bound to streptavidin-phycoerythrin
notes: also called BALB-BTLA pET28 product; not shown: biotinylation tag of the MLL1-pET28 vector

binding result [1]: no binding
binding result [2]: no binding
binding result [3]: no binding
B3: C57BL/6 BTLA tetramer-phycoerythrin (other)
chain: EKATKRNDEECPVQLTITRNSKQSARTGELFKIQCPVKYCVHRPNVTWCKHNGTICVPLEVSPQLYTSWEENQSVPVFVLHFKPIHLSDNGSYSCSTNFNSQVINSHSVTIHVTERTQNSSEHPLIISDIPDATNASGGGLNDIFEAQKIEWHE
modifications: biotinylated in vitro with BirA ligase on the C-terminal BirA sequence; bound to streptavidin-phycoerythrin
notes: also called B6-BTLA pET28 product

binding result [4]: no binding
B5: mB7x-Fc fusion protein (Fc fusion)
chain: T7 sequence
notes: not shown: Fc-αTP part of the CD47-Fc-αTP-ires-GFP-RV vector (detected with anti-human IgG)
binding result [1]: no binding (tested: 200 ng of purified Fc-fusion protein)

binding result [5]: no binding
binding result [6]: no binding
binding result [1]: no binding
B7: mouse BTLA tetramer (allele not stated at these places) (other, UniProt Q7TSA3 30-166, looked up)
chain: EKATKRNDEECPVQLTITRNSKQSARTGELFKIQCPVKYCVHRPNVTWCKHNGTICVPLEVSPQLYTSWEENQSVPVFVLHFKPIHLSDNGSYSCSTNFNSQVINSHSVTIHVRERTQNSSEHPLITVSDIPDATNA
modifications: biotinylated; bound to streptavidin-phycoerythrin
notes: domain: BTLA Ig domain; also called BTLA tetramers; tetramers of mouse BTLA

Second part, the binder before the results:

B1: Myc-tagged full length human BTLA, tyrosine-phosphorylated (pervanadate) (receptor)
chain: KESCDVQLYIKRQSEHSILAGDPFELECPVKYCANRPHVTWCKLNGTTCVKLEDRQTSWKEEKNISFFILHFEPMLPNDNGSYRCSANFQSNLIESHSTTLYVTDVKGASERPSKDEVASRPWLLYSLLPLGGLPLLITTWFCLFCCLRRHQGKQNELSDTAGREINLVDAHLKSEQTEASTRQNSQVLLSEAGIYDNDPDLCFRMQEGSEVCSNPCLEENKPGIVYASLNHSVIGLNSRLARNVKEAPTEYASICVRS
modifications: tyrosine-phosphorylated after pervanadate treatment (Y226, Y257, Y282 are the tyrosines studied)
notes: Expressed in Jurkat T cells; also called myc-hBTLA; Myc3-hBTLA; not shown: triple Myc tag inserted downstream of the signal peptide
binding result (Grb2): no binding
binding result (SHIP): no binding
binding result (SHP-1): no binding

B4: human BTLA-Fc fusion protein (Fc fusion)
chain: KESCDVQLYIKRQSEHSILAGDPFELECPVKYCANRPHVTWCKLNGTTCVKLEDRQTSWKEEKNISFFILHFEPMLPNDNGSYRCSANFQSNLIESHSTTLYVTDVKGASERPSKDEVA
notes: Used as 1 ml of supernatant for staining; also called hBTLA-Fc; not shown: Fc-αTP part of the CD47-Fc-αTP-ires-GFP-RV vector (detected with anti-human IgG)
binding result [1]: binds

B6: mouse BTLA-Fc fusion protein (Fc fusion)
chain: EKATKRNDEECPVQLTITRNSKQSARTGELFKIQCPVKYCVHRPNVTWCKHNGTICVPLEVSPQLYTSWEENQSVPVFVLHFKPIHLSDNGSYSCSTNFNSQVINSHSVTIHVTERTQNSSEHPLIISDIPDATNAS
notes: also called mBTLA-Fc; not shown: Fc-αTP part of the CD47-Fc-αTP-ires-GFP-RV vector (detected with anti-human IgG)
binding result [1]: no binding (tested: 200 ng of purified Fc-fusion protein)
